Reference: US20250340623A1 (AC IMMUNE, published 2025)
Numbering of substitutions follows the chain as printed.

B1: ACI-7079-3106F2-Ab1 (antibody, V domains shown)
VH: EVQLQQSGAELVRPGASVKLSCTASGFNVKDDYMHWVKQRPEQGLEWIGWIDPENGDTEYASKFQGKATLTADTSSNTAYLQLSGLTSVDTAVYYCTTAGTSPYYFDYWGQGTTLTVSS
VL: DIVMTQSQKFMSTSVGDRVSVTCKASQNVGTNVAWYQQKVGQSPKALIYSASYRYSGVPDRFTGSGSGTDFTLTISNVQSEDLADYFCQQYNSYPLTFGSGTKLEIK
notes: mouse hybridoma mAb; VH/VL only; also called 3106F2C8
B2: ACI-7087-4125E6-Ab1 (antibody, V domains shown)
VH: QVQLQQPGTELVKPGASVRLSCKASGYAFTSYWMHWVKQRPGQGLEWIGNINPSNGGTNYNEKFKNKATLTVDKSSSTAYMQLSGLTSEDSAVYYCATGLHYWGQGTTLTVSS
VL: DIQMTQSPSSLSASLGERVTLTCRASQDIGNYLNWLQQEPDGTIKRLIYATSSLDSGVPKRFSGSRSGSDYSLTISSLESEDFVDYYCLQFASSPLTFGPGTKLELK
notes: mouse hybridoma mAb; VH/VL only; also called 4125E6D5
B3: ACI-7087-4119E10-Ab2 (antibody, V domains shown)
VH: QVQLQQSGAELVRPGASVTLSCKASGYTFSDYEMNWVKQTPVHGLEWIGAIDPETGGTAYNQKFKGKAILTSDKSSSTAYMELRSLTSEDSAVYYCTRFLLIDFDYWGQGTTLTVSS
VL: DVLMTQTPLSLPVSLGDQASISCRSSQSIVHSNGNTYLEWYLKKAGQSPKVLIYKVSNRFSGVPDRFSGSGSGTDFTLKISRVEAEDLGVYYCFQGSHVPYTFGGGTELEIK
notes: mouse hybridoma mAb; VH/VL only; also called 4119E10D12
B4: ACI-8033-21C8-Ab1 (antibody, V domains shown)
VH: QVQLQQPGAELVKPGASVKMSCKASGYTFTSYWITWVRQRPGQGLDWIGDIYPGGGVTNYNEKFKTKATLTVDTSSSTAYMHLSSLTSEDSAVYFCATAQTTFAYWGQGTLVTVSA
VL: B3 VL with S28N, S32N, K43Q, A45P, V51L, Y101R, E108K
notes: mouse hybridoma mAb; VH/VL only; also called 917.21C8E4C8
B5: ACI-7079-3101E3-Ab1 (antibody, V domains shown)
VH: QVQLKESGPGLVAPSQSLSITCTVSGFSLTRYIINWVRQPPGKGLEWLGVIWTGGGTDYNSALKSRLSISKDNSKSQVFLKMNSLQTDDTARYYCAREYGYDGAWFAYWGQGTLVTVSA
VL: B3 VL with S28T, K43Q, A45P, V51L, E108K
notes: mouse hybridoma mAb; VH/VL only; also called 3101E3C9
B6: ACI-7079-3103G12-Ab2 (antibody, V domains shown)
VH: DVQLQESGPGMVKPSQSLSLTCTVTGYSITSGYDWHWIRHFPGNKLEWMGYITYSGSTNYNPSLKSRISITHDTSKNHFFLKLTSVTTEDTATYYCARDTVDAWFAYWGQGTLVTVSA
VL: B3 VL with T7A, N35D, K43Q, A45P, V51L, Y101P, E108K
notes: mouse hybridoma mAb; VH/VL only; also called 3103G12D2B10
B7: ACI-8033-6403E11-Ab2 (antibody, V domains shown)
VH: DVQLQESGPGLVKPSQSLSLTCSVTGYSITSAYYWNWIRQFPGNKLEWMGYISYDGSNNYIPSLKNRISISRDTSKNQFFLKLNSVTTEDTATYYCIRGDVNWGQGTTLTVSS
VL: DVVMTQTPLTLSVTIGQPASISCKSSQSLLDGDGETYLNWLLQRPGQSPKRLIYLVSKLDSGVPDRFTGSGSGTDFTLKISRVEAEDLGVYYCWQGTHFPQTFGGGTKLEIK
notes: mouse hybridoma mAb; VH/VL only; also called 6403E11B4
B8: ACI-8033-6402E10-Ab1 (antibody, V domains shown)
VH: B7 VH with S15V, A32G, Y54S, I61N, N84D, I97V, G99A, V101N, N102Y
VL: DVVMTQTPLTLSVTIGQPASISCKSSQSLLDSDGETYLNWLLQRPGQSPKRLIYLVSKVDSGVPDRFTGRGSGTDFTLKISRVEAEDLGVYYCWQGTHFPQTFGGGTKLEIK
notes: mouse hybridoma mAb; VH/VL only; also called 6402E10B3
B9: ACI-7089-4418C5-Ab1 (antibody, V domains shown)
VH: B7 VH with V2G, A32G, S53N, I61N, S71T, L83F, S85F, I97V, N102Y
VL: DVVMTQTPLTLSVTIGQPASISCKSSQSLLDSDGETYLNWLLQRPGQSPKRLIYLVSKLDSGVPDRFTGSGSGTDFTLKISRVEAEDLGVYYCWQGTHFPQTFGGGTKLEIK
notes: mouse hybridoma mAb; VH/VL only; also called 4418C5G1
B10: ACI-7089-4415G5-Ab1 (antibody, V domains shown)
VH: QVQLQQSGAELARPGASVKVSCKASGYTFTSSGISWLKHRTGQGLEWIGDIYPRSGNTYYNEKFKDKATLTADKSSSTAYMELRSLTSEDSAVYFCASGNYWGQGTTLTVSA
VL: DIVITQDDLSNPVTSGESVSISCRSSKSLLYKDGKTYLNWFLQRPGQSPQLLIYLMSTRASGVSDRFSGSGSGTDFTLEISRVKAEDVGVYYCQQLLEYPLTFGAGTKLELK
notes: mouse hybridoma mAb; VH/VL only; also called 4415G5A11
B11: ACI-7088-4301E12-Ab2 (antibody, V domains shown)
VH: DVQLQESGPGLVKPSQSLSLTCSVTGYSITSGYYWNWIRQFPGNKLEWMGYISDDGSKNYNPSLKNRISITRDTSKNQLFMKLNSVTTEDTATYYCARGDSRLGQGTLVTVSA
VL: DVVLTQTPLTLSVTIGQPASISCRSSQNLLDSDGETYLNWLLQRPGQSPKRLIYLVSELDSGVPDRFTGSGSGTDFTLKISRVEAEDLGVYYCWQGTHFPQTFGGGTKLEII
notes: mouse hybridoma mAb; VH/VL only; also called 4301E12B9
B12: ACI-7079-3103D9-Ab1 (antibody, V domains shown)
VH: QVSLKESGPGILQPSQTLSLTCSFSGFSLSTFGMGVGWIRQPSGKGLDWLTHIWWDDDKYYNPGLKSRLTISKDTSKNQVFLEIANVDTADTATYYCARIGDYYGTRGYFDVWGTGTTVTVSS
VL: DIVMTQSPSSLTMSLGQTVTMSCKSSQSLLNSSNQKNHLAWYQQRPGQSPKLLVYFASTRESGVPERFIGGGSGTDFTLTISNVQSEDLTDYFCQQHYSTPYTFGGGTKLEIK
notes: mouse hybridoma mAb; VH/VL only; also called 3103D9C9
B13: ACI-7079-3106C5-Ab1 (antibody, V domains shown)
VH: B12 VH with S3T, D48E, G64A, K73R, T75P, E83K, T106S
VL: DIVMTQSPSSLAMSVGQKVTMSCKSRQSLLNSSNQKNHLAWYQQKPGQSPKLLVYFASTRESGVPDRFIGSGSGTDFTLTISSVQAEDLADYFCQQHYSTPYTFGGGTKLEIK
notes: mouse hybridoma mAb; VH/VL only; also called 3106C5B7
B14: ACI-7079-3107E6-Ab1 (antibody, V domains shown)
VH: B12 VH with S3T, D48E, G64A, T75A, V80M, E83K, Y96F, T106S, Y109F
VL: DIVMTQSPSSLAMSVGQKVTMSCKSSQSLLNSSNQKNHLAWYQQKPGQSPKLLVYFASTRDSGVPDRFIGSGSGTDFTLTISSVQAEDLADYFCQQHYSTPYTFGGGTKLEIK
notes: mouse hybridoma mAb; VH/VL only; also called 3107E6A3
B15: ACI-7079-3104F12-Ab2 (antibody, V domains shown)
VH: B12 VH with S3T, L12V, S30N, M34L, G64A, E83K, Y103F, T106S
VL: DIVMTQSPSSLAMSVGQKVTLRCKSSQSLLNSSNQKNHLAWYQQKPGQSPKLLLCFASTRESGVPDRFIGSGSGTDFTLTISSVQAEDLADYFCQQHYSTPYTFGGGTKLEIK
notes: mouse hybridoma mAb; VH/VL only; also called 3104F12F2H7
B16: ACI-7079-2601B6-Ab1 (antibody, V domains shown)
VH: EIQLQQSGAELVRPGASVKLSCTTSGFNIKDDYIHWVKQRPEQGLEWIGWIDPENGDTDYASKFQGKATITADTSSNTAYLHLSSLTSEDAAVYFCTTRGFGYWGQGTLVTVS
VL: DIVMTQSHKFMSTSVGDRVSITCKASQDVGNVVAWYQQKPGQSPKLLIYWASSRHTGVPDRFTGSGSGTEFTLTISNVQSEDLADYFCQQYSSYPLTFGAGTKLELK
notes: mouse hybridoma mAb; VH/VL only; also called 2601B6D2; ACI-7079-26016NAbM
B17: ACI-7088-4301D5-Ab2 (antibody, V domains shown)
VH: QVQLQQSGPELVRPGASVKISCKASGYRFTSYYIHWVKQRPGQGLEWIGWIYPGSDNTKHNDKFKGKATLTADTSSSTAYMQLSSLTSEDSAVYFCARDYDVGFGYWGQGTLVTVSS
VL: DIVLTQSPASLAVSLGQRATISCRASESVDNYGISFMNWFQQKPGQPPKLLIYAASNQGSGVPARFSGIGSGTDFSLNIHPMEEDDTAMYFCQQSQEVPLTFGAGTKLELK
notes: mouse hybridoma mAb; VH/VL only; also called 4301D5B10
B18: ACI-7079-3108C10-Ab2 (antibody, V domains shown)
VH: ELQLVESGGGLVRPGGSLKLSCATSGFTFRNYAMSWVRQTPAKRLEWVATISDGGTYTFYSDNVKGRFTISRDNVKNTLYLQMSHLKSEDTAMYYCSRAGSGHWGQGTTLTVSS
VL: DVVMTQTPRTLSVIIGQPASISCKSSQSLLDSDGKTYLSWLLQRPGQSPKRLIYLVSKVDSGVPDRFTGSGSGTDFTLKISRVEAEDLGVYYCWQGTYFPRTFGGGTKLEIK
notes: mouse hybridoma mAb; VH/VL only; also called 3108C10G6
B19: ACI-8033-22E5-Ab1 (antibody, V domains shown)
VH: EVQLVESGGDLVKPGGSLKLSCAASGFTFSSYGMSWVRQTPDKRLEWVATISNGGSYTYYPDSVKGRFTISRDNAKNTLYLQMSSLKSEDTAMYYCARQLRRDGWYFDVWGTGTTVTVSS
VL: EIVLTQSPALMAASPGEKVTITCSVSSSISSSKLHWYQQKSETSPKLWIYGTSNLASGVPVRFSGSGSGTSYSLTISSMEAEDAATYYCQQWSSYPLTFGAGTKLELK
notes: mouse hybridoma mAb; VH/VL only; also called 917.22E5C5F7

target: monomeric alpha-synuclein (UniProt P37840 1-140); assay: SPR, captured mAb
Description: (§1) Non-covalent immobilization of alpha-synuclein antibodies was performed using a target immobilization method of 2000 response units (RU). Antibodies were diluted in 10 mM sodium acetate pH 5.5 (GE Healthcare, BR-1003-52) to a final concentration of 5 μg/mL.
(§2) Binding affinity of alpha-synuclein antibodies to monomeric or fibrillar alpha-synuclein species was performed using a single-cycle kinetics method. The instrument was primed with 1×HBS-P+ buffer (10× stock from GE Healthcare, BR-1003-52 diluted in Milli-Q water). Injections of monomeric alpha-synuclein (aSyn) (Boston Biochem, SP-485), increasing in concentration from 0.62-50 nM prepared from serial 2-fold dilutions, were performed with contact times of 300 sec/injection at a flow rate of 30 μL/min. A dissociation phase of 900 sec followed the final 50 nM injection. Regeneration of the sensor to the goat anti-mouse antibody layer was achieved using 3 regenerations of 10 mM Glycine pH 1.7. […] Regeneration of the sensor to the goat anti-mouse antibody layer was achieved using 3 regenerations of 10 mM Glycine pH 1.7. Results obtained from single-cycle kinetics were evaluated by Biacore T200 evaluation software with 1:1 binding homogenous Langmuir model (with a global Rmax) with Cycle 5 as a blank subtraction. The following kinetic parameters were obtained: on-rate (ka), off-rate (kd), affinity constant (KD, ratio of kd by ka), maximum response (Rmax), and goodness of fit (Chi2).
(§3) Non-covalent capture of the alpha-synuclein antibodies was performed in three separate runs.

Binder | Kd | koff | kon
B1 | 392 nM | 0.135 s⁻¹ | 344000 M⁻¹ s⁻¹
B2 | 442 nM | 0.0261 s⁻¹ | 59100 M⁻¹ s⁻¹
B3 | 1040 nM | 0.0188 s⁻¹ | 18000 M⁻¹ s⁻¹
B4 | 1.6 nM | 0.000482 s⁻¹ | 301000 M⁻¹ s⁻¹
B5 | 300 nM | 0.0569 s⁻¹ | 190000 M⁻¹ s⁻¹
B6 | 2.4 nM | 0.0014 s⁻¹ | 580000 M⁻¹ s⁻¹
B7 | 3.9 nM | 0.000293 s⁻¹ | 75200 M⁻¹ s⁻¹
B8 | 28.3 nM | 0.00058 s⁻¹ | 20500 M⁻¹ s⁻¹
B9 | 3.1 nM | 0.000141 s⁻¹ | 45000 M⁻¹ s⁻¹
B10 | 2.4 nM | 0.000141 s⁻¹ | 60000 M⁻¹ s⁻¹
B11 | 6 nM | 0.000118 s⁻¹ | 19800 M⁻¹ s⁻¹
B12 | 0.73 nM | 0.000437 s⁻¹ | 598000 M⁻¹ s⁻¹
B13 | 4.1 nM | 0.00325 s⁻¹ | 792000 M⁻¹ s⁻¹
B14 | 1.12 nM | 0.000859 s⁻¹ | 765000 M⁻¹ s⁻¹
B15 | 0.51 nM | 0.000452 s⁻¹ | 892000 M⁻¹ s⁻¹
B16 | 82.1 nM | 0.0238 s⁻¹ | 290000 M⁻¹ s⁻¹
B17 | 620 nM | 0.0353 s⁻¹ | 56900 M⁻¹ s⁻¹

target: alpha-synuclein fibrils (UniProt P37840 1-140); assay: SPR, captured mAb
Description: as §1, §2, §3

Binder | Kd | koff | kon
B1 | 31.5 nM | 0.000367 s⁻¹ | 11700 M⁻¹ s⁻¹
B2 | 50.7 nM | 0.000567 s⁻¹ | 11200 M⁻¹ s⁻¹
B3 | 16.2 nM | 0.00453 s⁻¹ | 280000 M⁻¹ s⁻¹
B4 | 17.7 nM | 0.000156 s⁻¹ | 8810 M⁻¹ s⁻¹
B5 | 13.7 nM | 0.000129 s⁻¹ | 9380 M⁻¹ s⁻¹
B6 | 22.5 nM | 0.000563 s⁻¹ | 25000 M⁻¹ s⁻¹
B18 | 6.77 nM | 6.66e-05 s⁻¹ | 9840 M⁻¹ s⁻¹
B7 | 44.6 nM | 0.000273 s⁻¹ | 6110 M⁻¹ s⁻¹
B8 | 37.4 nM | 0.000152 s⁻¹ | 4060 M⁻¹ s⁻¹
B9 | 0.05 nM | 9.4e-06 s⁻¹ | 207000 M⁻¹ s⁻¹
B19 | 1.8 nM | 3.27e-05 s⁻¹ | 18000 M⁻¹ s⁻¹
B10 | 1.3 nM | 0.00031 s⁻¹ | 242000 M⁻¹ s⁻¹
B11 | 39 nM | 0.000166 s⁻¹ | 4250 M⁻¹ s⁻¹
B12 | 9.2 nM | 0.000413 s⁻¹ | 44800 M⁻¹ s⁻¹
B13 | 9.49 nM | 0.000237 s⁻¹ | 25000 M⁻¹ s⁻¹
B14 | 2.66 nM | 0.000146 s⁻¹ | 55100 M⁻¹ s⁻¹
B15 | 3.73 nM | 0.000268 s⁻¹ | 71800 M⁻¹ s⁻¹
B16 | 22 nM | 0.000382 s⁻¹ | 17400 M⁻¹ s⁻¹
B17 | 35.8 nM | 0.000385 s⁻¹ | 10800 M⁻¹ s⁻¹
